The record followed here is the nanobody polyreactivity screen of Harvey et al. (2022).

This data set is described as follows: yeast display, Sf9 membrane polyspecificity reagent, FACS + sequencing; frameworks hold sequencing errors. Summed up:
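Nanobodies from a synthetic yeast display library (Saccharomyces cerevisiae BJ5465), induced 36–48 hours with galactose, were stained 1 hour at 4 °C with 10% biotinylated, detergent-solubilized Sf9 membrane reagent, enriched on streptavidin microbeads, then FACS-sorted. Anti-HA (expression) and streptavidin (reagent binding) fluorescence set low and high (top ~1%) gates. Polyreactivity labels come from the gate of origin. Genes were colony-PCR amplified, MiSeq 2 × 250 sequenced and filtered by CDR length.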
For “QVQLVESGGGLVQAGGSLRLSCAASGSTFVKNSMGLYRQAPGKERELVAVISWPGSSTYYADSVKGRFTISRDNAKNTDYLQMISLKPEDTAVYYCNAPKIRPGSHTRHYYWGQGTQVTVSS”, the “polyreactivity (PSR sort gate)” value is on record as “low polyreactivity”.
Next, “QVQLVESGGGLVQAGGSLRLSCAASGSIFAQNAMGWYRQAPGKERELVAAITSGGSTYYADSVKGRFTISRDNAKNTVYLQMNSLKPEDTAVYYCAARGWGPFYQYYYLGQGTQVTVSS”: “high polyreactivity”; “QVQLVESGGGLVQAGGSLRLSCAASGSIFQVYAMGWYRQAPGNESEFVADIDWSGESTYYADSVKGRFTISRDNAKNTVYLQMNSLKPEDTAVYYCAAEDGYVTWDRDYEYWGQGTQVTVSS”: “low polyreactivity”; “QVQLVESGAGLVQAGGSLRLSCAASGITFSYYSMGWYRQAPGKERELVAVISGSGSTTSYADSVKGRFTISRDNAKNTVYLQMNSLKPEDTAVYYCAADGGWRPEYYYWGQGTQVTVSS”: “low polyreactivity”.
Regarding “QVQLVESGGGLVQAGGSLRLSCAASGRIFGRYAMGWYRQAPGNERELVAAISRRGSRTYYADSVKGRFTISRDNAKNTVYLQMNSLKPEDTAVYYCNALTGSFKTYSFDYWGQGTQVTVSS”, the “polyreactivity (PSR sort gate)” value is “high polyreactivity”.
Next, “QVQLVESGGGLVQAGGSLRLSCAASGRTLQSYAMGWYRQAPGKERELVAAITSTGTTYYADSVKGRFTISRDNAKNTVYLQMNSLKPEDTAVYYCAAGGSIVLGHYHYVKMYYWGQGTQVTVSS”: “high polyreactivity”; “QVQLVESGGGLVQAGCSLRLSCAASGRIFYRNAMGWYRQAPGKERELVAGITRGGSTNYADSVKGRFTISRDNAKNNVYLQLNSLKPEDTAVYYCAKAIPAKFYSEAGYDYWGQGTQVTVSS”: “low polyreactivity”; “QVQLVESGGGLVQAGGSLRLTCAASGRTFGKYAMGWYRQAPGKERELVAAISSSGSTNYADSVKGRFTISRDNAKNTDYLQMNSLKPEDTAVYYCAAVQPGQSTVAYDYWGQGTQVTVSS”: “high polyreactivity”.
Consider “QVQLVESCGGLDQAGGSLRLTCAASGINFWYNTMGWYRQAPRKERELVAAITYGGGSTYYADSVKGRFTISRDNAKNSVYLQMYSMKPVDTAVYYCAVRNWHLIKYLHGYSRYGYWGQGTQVTVSS”, for which the “polyreactivity (PSR sort gate)” value is recorded as “low polyreactivity”.
“QVQLVESGGGLVQAGGSLRLSCAASGFIFRVYTMVWYRQAPGKERELVAAISYRGGRTYYADSVKGRFTISRDNAKNTVFLQMNSLKPEDTAVYYCAADRVNREFDYWGQGTQVTVSS”: the “polyreactivity (PSR sort gate)” value was “high polyreactivity”.
On to “QVQLVESGGGLVQAGGSLRLSCAASGSIFYTYAMGWYRQAPGKERELVASITNDDSTNYADSVKGRFTISRDNAKKTVYLQMNSLKPEDTAVYYCADDSNWIYDIEYDYWGQGTQVTVSS”, for which the “polyreactivity (PSR sort gate)” value is “low polyreactivity”.
The value for “QVQLVESGGGLVQAGGSLRLSCAASGYILGGNAMGWYRQAHGKERELDAVIRKSGGSTYADSVKGRFTISRDNAKNSVYLQMNSLKPEDTAVYYCNADTLAGVYFYQSDYWGQGTQVTVSS” was “low polyreactivity”; that for “QVQLVESGGGLVQAGGSLRLSCAASGFNFYYYAMGWYRQAPGKERELVAVLTESGSSTYYADSVKGRFTISRDNAKNTVYLQMNSLKPEDSAVYYCNADFWPFTGKYDSVHLDYWGQATQVTVSS” was “low polyreactivity”; that for “QVQLVESGGGLVQAGGSLRLSCAASGRIFVDYAMGWNRQAPGKERELVAAISWSGRTYYADSVKGRFTISRDNAKNTVYLQMNSLKPEDTAVYYCNAAYHYYGKYDYWGQGTQVTVSS” was “high polyreactivity”.
On to “QVQLVESGGGLVQAGGSLRLSCAASGIIFDWYAMGGYRQAPGKERELVAAITSGGGSTYYADSVKGRFTISRDNAKNSVYLQMNSLKPEDSAVYYCAADYQTIGWGYDYWGQGTQVTVSS”, for which the “polyreactivity (PSR sort gate)” value is recorded as “low polyreactivity”.
In the case of “QVQLVESGGGLVQARGSLRLTWAASGRTFGINAMGWYRQAPGKERELVAVISGSGGNTYYADSVKGRFTISRDNAKNTVYLQMNSLKPEDTAVYYFATSYEKFRYDHGYWGQGTQVTVSS”, the “polyreactivity (PSR sort gate)” value is recorded as “low polyreactivity”.
